Test results from patent publication US20240150440A1 (LUMEN BIOSCIENCE, published 2024).
Where a chain is given by its changes, count along the chain named. Numbers in names are those of the source. Like-named read-outs stand apart in the source and are kept apart here.

Columns and labels:
[1] = molecular target: T1, recombinant SARS-CoV-2 RBD with C-terminal AviTag (SARS-CoV-2, UniProt P0DTC2 319-541)
[2] = molecular target: T1, recombinant SARS-CoV-2 RBD with …; remark: listed apart in the source
[3] = molecular target: T1, recombinant SARS-CoV-2 RBD with …; remark: listed apart in the source
[4] = molecular target: T1, recombinant SARS-CoV-2 RBD with …; test: ELISA, competition with coated ACE2-Fc for RBD [Cont. 1]
[5] = molecular target: SARS-COV-2 Wuhan Reference RBD (SARS-CoV-2, UniProt P0DTC2 319-541); test: ELISA, RBD coated
[6] = molecular target: T1, recombinant SARS-CoV-2 RBD with …; test: ELISA, competition with coated ACE2-Fc for RBD [Cont. 7]
[7] = molecular target: T1, recombinant SARS-CoV-2 RBD with …; test: BLI, biotinylated RBD on streptavidin biosensors

B1: MBP-5HVZ-R5D-F3-H6 (VHH, not shown: large carriers; small tags and cut ends)
VHH: QVQLVESGGGLVQPGGSLRLSCAASGSQLSINYVHWFRQAPGKQREFVAAITITGSSYYADSVKGRFTISRDNAKNTVYLQMNSLKPEDTAVYYCNTVDRTDNYGYDYWGQGTQVTVSS
B1 was tested, and the IC50 [1] was 29.3 nM.

B2: MBP-5HVZ-R5D-G1-H6 (VHH, not shown: large carriers; small tags and cut ends)
VHH: QVQLVESGGGLVQPGGSLRLSCAASGSIFGINDVHWFRQAPGKEREFVATITNGLSARYKDSVKGRFTISRDNAKNTVYLQMNSLKPEDTAVYYCAAQVYITTYELYDYWGQGTQVTVSS
Binder B2 has an IC50 [1] of 12.4 nM.

B3: MBP-5HVZ-R5C-G6-H6 (VHH, not shown: large carriers; small tags and cut ends)
VHH: QVQLVESGGGLVQPGGSLRLSCAASGSIESINAIHWFRQAPGKAREEVAAITENDVDYYADSVKGRFTISRDNAKNTVYLQMNSLKPEDTAVYYCASLSSGYQYVGFRYWGQGTQVTVSS
B3 was tested, and the IC50 [2] was 8.7 nM.

B4: PP1895 S3B-C8_smAKAP-C16S_S3B-C8_H6 (VHH)
chain: QVQLVESGGGLVQPGGSLRLSCAASGSIENIERMHWYRQAPGKQRELVAVIDSGGTTRYADSVKGRFTISRDNAKNTVYLQMNSLKPEDTAVYYCAAVWLTNAESTQEYWGQGTQVTVSSTVILEYAHRLSQDILSDALQQWASQVQLVESGGGLVQPGGSLRLSCAASGSIENIERMHWYRQAPGKQRELVAVIDSGGTTRYADSVKGRFTISRDNAKNTVYLQMNSLKPEDTAVYYCAAVWLTNAESTQEYWGQGTQVTVSSHHHHHH
In the case of B4, the Kd [3] is reported as 2.06 nM, the koff [3] is reported as 0.00761 s⁻¹ and the kon [3] is reported as 3.69e+06 M⁻¹ s⁻¹.

B5: MBP-5HVZ-R5C-F3-H6 (VHH, not shown: large carriers; small tags and cut ends)
VHH: QVQLVESGGGLVQPGGSLRLSCAASGTIPSINYTAWYRQAPGKQRELVASLTSGDNRYYTDSVKGRFTISRDNAKNTVYLQMNSLKPEDTAVYYCNAKTVGSSYRDSYNYWGQGTQVTVSS
For B5, the IC50 [2] was 11.9 nM and the Kd [2] was 11.3 nM.

B6: PP1146 MBP-5HVZ-PAPA-R2d-D3-H6 (VHH)
VHH: QVQLVESGGGLVQPGGSLRLSCAASGHIFSINNAAWVRQAPGKSREGVATIHSGGGTYYSDSVKGRFTISRDNAKNTVYLQMNSLKPEDTAVYYCNAEVSTGAGSRGRVSDVYWGQGTQVTVSS
notes: Form: Dimer
Work on B6 yielded an IC50 [4] of 2.1 nM.

B7: PP1158 MPB-scTRP-PAPA-R2d-D3-H6 (VHH)
VHH: B6 VHH
notes: Form: Trimer
B7 showed an IC50 [4] of 43.4 nM.

B8: PP1181 R2d-D3-PP7-H6 (VHH)
VHH: B6 VHH
For B8, the IC50 [4] was 282 nM.

B9: PP1134 MBP-4B0F-PAPA-R2d-D3-H6 (VHH)
VHH: B6 VHH
notes: Form: Heptamer
Work on B9 yielded an IC50 [4] of 27.7 nM.

B10: PP1894 S3B-C8_smAKAP-C16S_R2B-D5_H6 (VHH)
chain: QVQLVESGGGLVQPGGSLRLSCAASGSIENIERMHWYRQAPGKQRELVAVIDSGGTTRYADSVKGRFTISRDNAKNTVYLQMNSLKPEDTAVYYCAAVWLTNAESTQEYWGQGTQVTVSSTVILEYAHRLSQDILSDALQQWASQVQLVESGGGLVQPGGSLRLSCAASGYADEINMVHWYRQAPGKGREFVAAIASGGSTFYADSVKGRFTISRDNAKNTVYLQMNSLKPEDTAVYYCAAIPRPSLSYAHDYAYWGQGTQVTVSSHHHHHH
For B10, the Kd [3] was 0.44 nM, the koff [3] was 0.000599 s⁻¹ and the kon [3] was 1.34e+06 M⁻¹ s⁻¹.

B11: MBP-R5D-D4-H6 (VHH, not shown: large carriers; small tags and cut ends)
VHH: QVQLVESGGGLVQPGGSLRLSCAASGSDFTINAMHWFRQAPGKQREFVATITSTSSTAYRDSVKGRFTISRDNAKNTVYLQMNSLKPEDTAVYYCAAFAVRDADTAGWTARDYWGQGTQVTVSS
B11 gave a Kd [1] of 100 nM.

B12: MBP-5HVZ-R5D-G6-H6 (VHH, not shown: large carriers; small tags and cut ends)
VHH: QVQLVESGGGLVQPGGSLRLSCAASGRILAANIVHWYRQAPGKNREGVAGITSGGSTYYADSVKGRFTISRDNAKNTVYLQMNSLKPEDTAVYYCAAKPLGSPDDFDYWGQGTQVTVSS
With B12 the IC50 [1] was 3.2 nM and the Kd [1] was 31.3 nM.

B13: PP907 MBP-5HVZ-S1b-E11-H6 (VHH)
VHH: QVQLVESGGGLVQPGGSLRLSCAASGSYASIASMHWFRQAPGKEREFVAGVTSGGSTNYGDSVKGRFTISRDNAKNTVYLQMNSLKPEDTAVYYCNALAGANYESQWEEYNYWGQGTQVTVSS
notes: Form: Dimer
Binder B13 has an EC50 [5] of 3 nM and an IC50 [6] of 15.9 nM.

B14: PP1157 MPB-scTRP-PAPA-R2d-A6-H6 (VHH)
VHH: B13 VHH with Y28G, A32G, S33A, E44G, F47W, G50S, V51I, G54A, S56N, N58Y
notes: Form: Trimer
B14 was tested, and the IC50 [4] was 4.7 nM.

B15: PP1133 MBP-4B0F-PAPA-R2d-A6-H6 (VHH)
VHH: B13 VHH with Y28G, A32G, S33A, E44G, F47W, G50S, V51I, G54A, S56N, N58Y
notes: Form: Heptamer
B15 gave an IC50 [4] of 11 nM.

B16: PP1145 MBP-5HVZ-PAPA-R2d-A6-H6 (VHH)
VHH: B13 VHH with Y28G, A32G, S33A, E44G, F47W, G50S, V51I, G54A, S56N, N58Y
notes: Form: Dimer
In the case of B16, the EC50 [5] is reported as 1.33 nM and the IC50 [4] is reported as 3.8 nM.

B17: MBP-5HVZ-R5D-E4-H6 (VHH, not shown: large carriers; small tags and cut ends)
VHH: QVQLVESGGGLVQPGGSLRLSCAASGQISSNNGMHWFRQAPGKRREFVATATTGGTTSYADSVKGRFTISRDNAKNTVYLQMNSLKPEDTAVYYCTALLMSRAGEFDYWGQGTQVTVSS
Binder B17 has an IC50 [1] of 13.7 nM and a Kd [1] of 9.34 nM.

B18: MBP-5HVZ-R5E-G2-H6 (VHH, not shown: large carriers; small tags and cut ends)
VHH: QVQLVESGGGLVQPGGSLRLSCAASGTIKSINAMHWFRQAPGKAREFVASIGSNGAKSYSDSVKGRFTISRDNAKNTVYLQMNSLKPEDTAVYYCTALITVAESDDYDYWGQGTQVTVSS
In the case of B18, the Kd [1] is reported as 3.14 nM.

B19: PP1892 R2B-D5_smAKAP-C16S_S3B-C8_H6 (VHH)
chain: QVQLVESGGGLVQPGGSLRLSCAASGYADEINMVHWYRQAPGKGREFVAAIASGGSTFYADSVKGRFTISRDNAKNTVYLQMNSLKPEDTAVYYCAAIPRPSLSYAHDYAYWGQGTQVTVSSTVILEYAHRLSQDILSDALQQWASQVQLVESGGGLVQPGGSLRLSCAASGSIENIERMHWYRQAPGKQRELVAVIDSGGTTRYADSVKGRFTISRDNAKNTVYLQMNSLKPEDTAVYYCAAVWLTNAESTQEYWGQGTQVTVSSHHHHHH
Binder B19 has a Kd [3] of 0.33 nM, a koff [3] of 0.000411 s⁻¹ and a kon [3] of 1.23e+06 M⁻¹ s⁻¹.

B20: PP908 MBP-5HVZ-S2a-C4-H6 (VHH)
VHH: QVQLVESGGGLVQPGGSLRLSCAASGFSESINATAWFRQAPGKQREGVAGLDGGGSDYYSDSVKGRFTISRDNAKNTVYLQMNSLKPEDTAVYYCAAQLTSSFRGYDFTPSNYDYWGQGTQVTVSS
notes: Form: Dimer
B20 was tested, and the EC50 [5] was 1.59 nM, the Kd [7] was 219 nM and the IC50 [6] was 13.1 nM.

B21: PP911 MBP-5HVZ-S2b-F7-H6 (VHH)
VHH: QVQLVESGGGLVQPGGSLRLSCAASGSTLSNNAMHWFRQAPGKAREFVAAIGSSDSTDYKDSVKGRFTISRDNAKNTVYLQMNSLKPEDTAVYYCTALLDSGPGEYNYWGQGTQVTVSS
notes: Form: Dimer
For B21, the EC50 [5] was 2.36 nM, the Kd [7] was 44.3 nM and the IC50 [6] was 43.6 nM.

B22: MBP-5HVZ-R5D-B2-H6 (VHH, not shown: large carriers; small tags and cut ends)
VHH: QVQLVESGGGLVQPGGSLRLSCAASGSIWSIAFMSWYRQAPGKGREWVAAITTGNDEAYADSVKGRFTISRDNAKNTVYLQMNSLKPEDTAVYYCAANTYERTPDGRTFSYWGQGTQVTVSS
For B22, the Kd [2] was 1.21 nM.

B23: MBP-5HVZ-R5C-F5-H6 (VHH, not shown: large carriers; small tags and cut ends)
VHH: QVQLVESGGGLVQPGGSLRLSCAASGSYFKINSLAWFRQAPGKAREVVAAIHSGDGTNYADSVKGRFTISRDNAKNTVYLQMNSLKPEDTAVYYCAADQAWVRAGTYDYWGQGTQVTVSS
B23 was tested, and the IC50 [2] was 3.9 nM and the Kd [2] was 3.13 nM.

B24: PP909 MBP-5HVZ-S2b-A7-H6 (VHH)
VHH: QVQLVESGGGLVQPGGSLRLSCAASGSSDSWNALHWFRQAPGKEREFVAGISSAGSGYYADSVKGRFTISRDNAKNTVYLQMNSLKPEDTAVYYCNGYEHTTGYDYWGQGTQVTVSS
notes: Form: Dimer
Binder B24 has an EC50 [5] of 0.62 nM, a Kd [7] of 22.5 nM and an IC50 [6] of 5.9 nM.

B25: PP915 MBP-5HVZ-S3b-A7-H6 (VHH)
VHH: QVQLVESGGGLVQPGGSLRLSCAASGSIASINAIHWVRQAPGKQREEVAAITSGGSTGYADSVKGRFTISRDNAKNTVYLQMNSLKPEDTAVYYCAAQPGQSYAVWGQGTQVTVSS
notes: Form: Dimer
B25 showed an EC50 [5] of 1.05 nM and a Kd [7] of 2.63 nM.

B26: PP914 MBP-5HVZ-S3a-H1-H6 (VHH)
VHH: QVQLVESGGGLVQPGGSLRLSCAASGGIYSPYSMHWFRQAPGKAREWVAGIVGGGGTTYSDSVKGRFTISRDNAKNTVYLQMNSLKPEDTAVYYCNANYQEYDEYDYWGQGTQVTVSS
notes: Form: Dimer
B26 showed an EC50 [5] of 3.24 nM and an IC50 [6] of 4.3 nM.

B27: PP910 MBP-5HVZ-S2b-C10-H6 (VHH)
VHH: QVQLVESGGGLVQPGGSLRLSCAASGSAFSLNYMAWFRQAPGKQREGVAIIGSGGSSDYADSVKGRFTISRDNAKNTVYLQMNSLKPEDTAVYYCAAQPNGSPDDFDYWGQGTQVTVSS
notes: Form: Dimer
Binder B27 has a Kd [7] of 54 nM and an IC50 [6] of 405 nM.

B28: MBP-5HVZ-R5C-F6-H6 (VHH, not shown: large carriers; small tags and cut ends)
VHH: QVQLVESGGGLVQPGGSLRLSCAASGQTNSILAMHWYRQAPGKQREAVATITSGSNSTYADSVKGRFTISRDNAKNTVYLQMNSLKPEDTAVYYCAARNGKLSPKANQRLYWGQGTQVTVSS
With B28 the IC50 [2] was 110 nM.

B29: MBP-5HVZ-R5D-A1-H6 (VHH, not shown: large carriers; small tags and cut ends)
VHH: QVQLVESGGGLVQPGGSLRLSCAASGSISSYNAMHWFRQAPGKQREWVAGLTSSGSDGYVDSVKGRFTISRDNAKNTVYLQMNSLKPEDTAVYYCNAFSYHTYSRYDFWGQGTQVTVSS
With B29 the IC50 [2] was 12.6 nM.
